Paper PMC11585597

Legend:
[1] = molecular target: StrepII-∆N-term DERA (Chloroflexi bacterium GWB2_54_36); assay: pull-down + SEC
[2] = molecular target: HIS-∆N-term DERA (deoxyribose 5-phosphate aldolase of the SPU6 BMC locus, N-terminal extension deleted) (Chloroflexi bacterium GWB2_54_36); assay: SEC

Q: With “HIS-RPI (ribose 5-phosphate isomerase B family protein of the SPU6 BMC locus, full length) (enzyme)” as the substance, how does the stoichiometry N [1] read?
A: 1

Q: What about the subunits of each protein in the complex [1] of the same substance?
A: > 2

Q: How did the stoichiometry N [2] turn out when “HIS-∆N-term DERA (deoxyribose 5-phosphate aldolase of the SPU6 BMC locus, N-terminal extension deleted) (domain or fragment)” was run?
A: 2
